The text below walks through data of patent US20190225703A1 (INNATE PHARMA, published 2019).

The target in assay [1] is T1, cynomolgus CD73 expressed at the cell surface (cynomolgus).
T1 construct: whole, on cells; Recombinant cell line expressing cynomolgus CD73; also called cynoCD73
Nature of the assay: flow cytometry titration on cynomolgus-CD73-expressing cell line. The procedure:
(§1) 10⁵ cells resuspended in PBS/0.2% BSA/0.02% NaN3 (named “staining buffer”) are distributed into round bottom 96W-microplates. Dose-range of anti-CD73 antibodies was added to the plates and cells are incubated for 45 min at 4° C. Cells were washed three times in staining buffer by spinning plates at 400 g for 3 min at 4° C. PE-coupled goat anti-mouse or goat anti-human IgG Fc fragment secondary antibodies (Beckman Coulter) diluted in staining buffer were added to the cells and plates are incubated for 30 additional minutes at 4° C. Cells were washed three times as described above and analyzed on an Accury C6 flow cytometer equipped with an HTFC plate reader.
(§2) Median of fluorescence vs. antibodies concentration was plotted on graphs and EC50 is calculated using GraphPad Prism program.

Assay [2] addresses T2, human CD73 (ecto-5'-nucleotidase) expressed at the cell surface (human, UniProt P21589 27-549).
T2 construct: Used for huCD73-expressing recombinant cell lines, MDA-MB-231 cells (endogenous CD73), HEK-293T cells with wild type CD73, and primary T and B cells; also called huCD73; wild type CD73
T2 sequence: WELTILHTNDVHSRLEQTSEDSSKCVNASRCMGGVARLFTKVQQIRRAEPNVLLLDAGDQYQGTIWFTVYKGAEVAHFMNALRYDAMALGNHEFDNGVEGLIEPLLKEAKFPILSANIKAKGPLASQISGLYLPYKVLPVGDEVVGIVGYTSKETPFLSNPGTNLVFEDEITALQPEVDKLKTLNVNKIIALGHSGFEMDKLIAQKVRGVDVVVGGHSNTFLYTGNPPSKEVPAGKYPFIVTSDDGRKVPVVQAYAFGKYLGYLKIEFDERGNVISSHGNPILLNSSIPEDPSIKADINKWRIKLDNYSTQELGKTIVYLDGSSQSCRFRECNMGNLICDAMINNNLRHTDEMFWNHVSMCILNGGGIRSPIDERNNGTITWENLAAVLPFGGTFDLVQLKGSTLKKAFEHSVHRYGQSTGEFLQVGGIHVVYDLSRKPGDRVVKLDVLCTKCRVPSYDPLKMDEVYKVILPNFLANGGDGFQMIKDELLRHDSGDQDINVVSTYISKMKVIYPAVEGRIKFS
The experiment in a line: flow cytometry titration on human-CD73-expressing cell line. The procedure: as §1, §2

In assay [3] the target is T2, human CD73 (ecto-5'-nucleotidase) …. The experiment in a line: flow cytometry titration on MDA-MB-231 cells, endogenous CD73. As to the method: as §1, §2
In general terms: In flow cytometry, cells or beads pass a laser one at a time.

For assay [4] the target is unchanged. The experiment in a line: flow cytometry titration on HEK-293T cells transfected with wild type human CD73. The procedure: (§3) Anti-CD73 antibodies are tested for their binding to each mutant by flow cytometry. A first experiment is performed to determine antibodies that lose their binding to one or several mutants at one concentration. To confirm a loss of binding, titration of antibodies is done on antibodies for which binding seemed to be affected by the CD73 mutations (1-0.1-0.01-0.001 μg/ml).

The target of a further assay is T3, human CD73 mutant 2 (human, UniProt P21589 27-549).
T3 construct: Transfected in HEK-293T cells; The cell prints A1071, read as A107I
T3 chain: T2 sequence with Q44S, R47A, A48E, A81I, R83G
Nature of the assay: flow cytometry titration on HEK-293T cells transfected with CD73 mutant 2. The procedure:
as §3

In assay [5] the target is T4, mouse CD73 expressed at the cell surface (mouse, UniProt Q61503 29-551).
T4 construct: whole, on cells; Recombinant cell line expressing mouse CD73; also called moCD73
T4 sequence (looked up): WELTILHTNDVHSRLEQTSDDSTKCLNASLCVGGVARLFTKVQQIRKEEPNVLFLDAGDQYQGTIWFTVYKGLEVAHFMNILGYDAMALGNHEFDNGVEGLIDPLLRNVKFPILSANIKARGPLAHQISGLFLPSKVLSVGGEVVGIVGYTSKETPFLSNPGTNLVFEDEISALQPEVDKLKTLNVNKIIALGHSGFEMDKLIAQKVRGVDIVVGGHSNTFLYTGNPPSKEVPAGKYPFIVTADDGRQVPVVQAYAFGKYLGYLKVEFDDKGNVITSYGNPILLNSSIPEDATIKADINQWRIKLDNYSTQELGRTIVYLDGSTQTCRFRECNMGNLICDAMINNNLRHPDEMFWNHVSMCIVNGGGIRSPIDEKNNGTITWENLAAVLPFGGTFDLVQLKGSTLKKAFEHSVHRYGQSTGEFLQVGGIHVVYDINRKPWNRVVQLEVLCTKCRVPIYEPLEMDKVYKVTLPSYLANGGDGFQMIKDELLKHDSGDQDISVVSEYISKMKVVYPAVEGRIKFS
Nature of the assay: flow cytometry titration on a cell line expressing mouse CD73. As to the method:
as §1, §2

Assay [6] addresses T5, recombinant human CD73-His extracellular domain protein, soluble dimer (human, UniProt P21589 27-547).
T5 construct: also called huCD73 protein; human recombinant soluble dimeric CD73
T5 sequence: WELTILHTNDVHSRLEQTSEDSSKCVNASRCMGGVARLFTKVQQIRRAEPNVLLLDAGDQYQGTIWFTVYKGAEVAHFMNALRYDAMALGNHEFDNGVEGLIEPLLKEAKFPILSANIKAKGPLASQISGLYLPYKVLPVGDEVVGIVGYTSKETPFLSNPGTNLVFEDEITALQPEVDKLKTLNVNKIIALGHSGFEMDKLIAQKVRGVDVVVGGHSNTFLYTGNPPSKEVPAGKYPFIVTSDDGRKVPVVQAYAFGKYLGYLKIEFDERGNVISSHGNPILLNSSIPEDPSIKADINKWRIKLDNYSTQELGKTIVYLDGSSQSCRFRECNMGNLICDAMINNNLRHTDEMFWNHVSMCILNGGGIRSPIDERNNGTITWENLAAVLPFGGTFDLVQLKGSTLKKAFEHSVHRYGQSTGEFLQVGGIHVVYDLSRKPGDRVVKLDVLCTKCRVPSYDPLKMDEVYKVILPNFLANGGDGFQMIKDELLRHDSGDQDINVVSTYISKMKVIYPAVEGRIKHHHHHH
The experiment in a line: SPR (Biacore T100, 25 °C), antibody captured on Protein-A, soluble dimeric CD73 injected 1.23 to 300 nM, 1:1 kinetic model, bivalent affinity. As to the method: SPR measurements were performed on a Biacore T100 apparatus (Biacore GE Healthcare) at 25° C. In all Biacore experiments HBS-EP+(Biacore GE Healthcare) and NaOH 10 mM served as running buffer and regeneration buffer respectively. Sensorgrams were analyzed with Biacore T100 Evaluation software. Protein-A was purchase from (GE Healthcare). Human soluble dimeric CD73 proteins were cloned, produced and purified at Innate Pharma.
Protein-A proteins were immobilized covalently to carboxyl groups in the dextran layer on a Sensor Chip CMS. The chip surface was activated with EDC/NHS (N-ethyl-N′-(3-dimethylaminopropyl) carbodiimide hydrochloride and N-hydroxysuccinimide (Biacore GE Healthcare). Protein-A was diluted to 10 μg/ml in coupling buffer (10 mM acetate, pH 5.6) and injected until the appropriate immobilization level was reached (i.e. 2000 RU). Deactivation of the remaining activated groups was performed using 100 mM ethanolamine pH 8 (Biacore GE Healthcare).
Affinity study was carried out according to a standard Capture-Kinetic protocol recommended by the manufacturer (Biacore GE Healthcare kinetic wizard). Serial dilutions of human recombinant soluble dimeric CD73 proteins, ranging from 1.23 to 300 nM were sequentially injected over the captured anti-CD73 antibodies and allowed to dissociate for 10 min before regeneration. […]
In general terms: SPR reads the build-up and loss of mass on a sensor chip optically.

The target in the next assay is T6, human CD73 mutant 3 (human, UniProt P21589 27-549).
T6 construct: Transfected in HEK-293T cells
T6 chain: T2 sequence with A73S, E103A, K107A, E108N, A109S
The experiment in a line: flow cytometry titration on HEK-293T cells transfected with CD73 mutant 3.

The next assay has as its target T7, human CD73 mutant 5 (human, UniProt P21589 27-549).
T7 construct: Transfected in HEK-293T cells
T7 chain: T2 sequence with P139S, D142G, N185A, E270A, R271A
Nature of the assay: flow cytometry titration on HEK-293T cells transfected with CD73 mutant 5.

A further assay concerns the target T8, human CD73 mutant 4 (human, UniProt P21589 27-549).
T8 construct: Transfected in HEK-293T cells
T8 chain: T2 sequence with K119A, K121A, S126H, S129A, Y135S, E177A, K180A
The experiment in a line: flow cytometry titration on HEK-293T cells transfected with CD73 mutant 4. As to the method: as §3

Numbering of substitutions follows the chain as printed.

B1: antibody 12F9 (antibody, human IgG1, V domains shown)
VH: QVQLQQSGPELVKPGASVRISCKASGYTFTNYYIHWVKQRPGQGLEWIGWIYPGNVNTKYNEKFKGKATLTADKSSNTAYMQLSSLTSEDSAVYFCAREGGYDRYALDYWGQGTSVTVSS
VL: QIVLTQSPALMSASPGEKVTMTCSASSSVSYMYWYQQKPRSSPKPWIYLTSNLASGVPARFSGSGSGTSYSLTISSMEAEDAATYYCQQWSSNPLTFGAGTKLELK
On to B1, for which the EC50 in assay [1] stood at 0.527 µg/mL; in [2] it was 0.137 µg/mL; in assay [3], 0.036 µg/mL. Besides, the “EC50 (read off the curve)” value (in [4]; with human CD73 mutant 2) was ~0.2 µg/mL each time. Also, the binding result in [5] is on record as “no binding (tested: 10 µg/ml)”. Moreover, the Kd in assay [6] turned out to be 0.938 nM.

B2: antibody AD2 (Biolegend Corp, product ref. 344004) (antibody, V domains shown)
VH: EVQLQQSGAELVKPGASVKLSCTASGFNIKDTYIHWVKQRPEQGLEWIGRIDPATGNTEYDPKFQGKATITADTSSNTAYLHLSSLTSEDTAVYYCARGYYGSSYPPWFAYWGQGTLVTVS
VL: DIVMTQSHKFMSTSVGDRVSITCKASQDVGSAVAWYQQKPGQSPKLLIYWASTRHTGVPDRFTGSGSGTDFTLTISNVQSEDLADYFCQQYSSYPLTFGAGTKLELK
Take B2: the “EC50 (read off the curve)” value with human CD73 mutant 3 was ~0.1 µg/mL; in [4] it was ~0.2 µg/mL; with human CD73 mutant 5, ~0.07 µg/mL; with human CD73 mutant 4, ~0.06 µg/mL. Besides, the EC50 came to 0.743 µg/mL in [2] and 0.431 µg/mL in [3]. In [2], the “fold higher concentration (EC50) than 7H10” value was ~4 fold.

By EC50 is commonly meant the midpoint of the concentration-response curve. Low readings indicate greater potency, high ones weaker potency. The EC50 (read off the curve) is the concentration that produces a half-maximal response.
